Residues, ends and D or L forms follow the SMILES beside them. *: point of attachment. Doxorubicin(3'-N) = COc1cccc2c1C(=O)c1c(O)c3c(c(O)c1C2=O)C[C@@](O)(C(=O)CO)C[C@@H]3O[C@H]1C[C@H](N*)[C@H](O)[C@H](C)O1
Tests used:
cathepsin B = molecular target: T1, cathepsin B (Homo sapiens, UniProt P07858); assay: enzyme cleavage assay, HPLC; type: in vitro ADME
T1 construct: purchased R&D systems
Method: The purity and molecular weight were analyzed using HPLC and matrix-assisted laser desorption/ionization time of flight mass spectrometer (MALDI-TOF, AB Sciex TOF/TOF 5800 System, USA) with cyano-4-hydroycinnamic acid (CHCA) matrix, respectively. The average size of PD-NPs in saline (1 mg/mL) was determined via dynamic light scattering (DLS; Zetasizer Nano ZS Malvern Instruments, UK). The morphology of nanoparticles in distilled water (1 mg/mL) was observed by transmission electron microscope (TEM; CM-200, USA). As a control, the cathepsin B-cleaved PD-NPs were also observed using TEM, wherein PD-NPs (1mg/mL) were pre-incubated with cathepsin B (10 μg) at 37 °C for 24 h. Enzyme cleavage assays were performed by incubating PD-NPs (10 μM) with cathepsin B, cathepsin D, cathepsin E, caspase-3 and caspase-9 (10 μg) in MES buffer (0.1 M, pH 5.5). As a control experiment, PD-NPs (10 μM) were also pre-incubated with irreversible cathepsin B inhibitor (Z-FA-FMK; 50 μΜ) in MES buffer and then further incubated with cathepsin B. Enzyme reaction buffer was analyzed by HPLC using an acetonitrile: H2O gradient from 20:80 (0 min) to 80:20 (20 min). In vitro drug release from the PD-NPs was further investigated under both physiological and enzymatic conditions. For these analyses, PD-NPs dispersed in the mouse serum (1 mg/mL) were loaded in membrane (Molecular weight cut off: 2000 Da; Dialysis membrane Spectra/Por® 7 MWCO 2000, 18 mm; Carl Roth, Karlsruhe, Germany) in the presence or absence of cathepsin B enzyme (10 μg). After incubation, peptide-DOX or free DOX released to the outer membrane was analyzed using HPLC. Fluorescence profiles of PD-NPs (10 μM) in saline was analyzed by fluorescence spectrophotometer (F-7000, Hitachi).

4T1 tumor-bearing mice [1] = assay: toxicity study (body weight, blood analyses); type: in vivo, mouse; settings: for blood analyses, hematological parameters (AST, ALT, BUN, CK, WBC, NEUT, LYMP): blood collected on day 16, treated once every three days; for body weights during treatment: treated once every three days
Method: The in vivo toxicity of PD-NPs was assessed by hematological analyses. Briefly, free DOX or PD-NPs (3 mg/kg based on DOX contents) were intravenously injected once every three days, and anti-PD-L1 antibody (10 mg/kg) was simultaneously i.p. injected into mice. Then, blood samples were collected from mice on day 16. For complete blood counts (CBCs), each blood sample was mixed with EDTA and a portion of each blood sample was centrifuged at 1,000 xg for 20 min, and then supernatants were stored at 4 °C. The following factors in blood samples were measured; aspartate transaminase (AST), alanine aminotransferase (ALT), blood urea nitrogen (BUN), creatinine kinase-MB (CK-MB), white blood cell (WBC), neutrophil (NEUT) and lymphocytes (LYMP).

4T1 tumor-bearing mice [2] = assay: biodistribution by NIRF imaging; type: in vivo, mouse; settings: 24 h after injection, 3 mg/kg based on DOX contents
Method: The 6-week female BALB/c mice were purchased from NaraBio (Gyeonggi-do, Republic of Korea). Mice were bred under pathogen-free conditions in the Korea Institute of Science and Technology (KIST). All experiments with animals were performed in compliance with the relevant laws and institutional guidelines of Institutional Animal Care and Use Committee (IACUC; approved number of 2020-123) in Korea Institute of Science and Technology (KIST). The in vivo biodistribution of PD-NPs was assessed in 4T1 tumor-bearing mice, which were prepared by subcutaneous inoculation of 1 x 10^7 4T1 cells. […] Noninvasive near-infrared fluorescence (NIRF) imaging was performed using an IVIS Lumina Series III system (PerkinElmer; Waltham, MA, USA) after 1, 6 and 24 h of injection. Fluorescence intensity in tumor regions was quantified using a Living Image software (PerkinElmer; Waltham, MA, USA). For ex vivo fluorescence imaging, mice were sacrificed after 24 h of injection, followed by extraction of liver, lung, spleen, kidney, heart and tumor tissues. Fluorescence intensity in tissues was analyzed using an IVIS Lumina Series III system. […] Slide-mounted tumor sections were stained with APC fluorescent dye-conjugated CD31 or PD-L1 antibody at 4 °C for 12 h, after which tumor tissues were analyzed using a Leica TCS SP8 confocal laser-scanning microscope.

T lymphocytes = assay: cytotoxicity against immune cells, CCK-8 assay; type: cell-based, mouse; settings: 24 h treatment, P < 0.001
Method: (§1) The cytotoxicity of PD-NPs was assessed by cell counting kit-8 (CCK-8) assays. First, 1 x 10^4 4T1, HUVEC, H9C2, BMDMs, BMDCs or CD8^+ T cells were seeded in 96-well cell culture plates. After 24 h of stabilization, the PD-NPs or free DOX were treated with each cell for 24 h. Then, the cells were further incubated with culture medium containing CCK-8 solution (10%) for 20 min, and cell viability was measured by a microplate reader with 450 nm of wavelength (VERSAmaxTM; Molecular Devices Corp., USA).

macrophages = type: cell-based, mouse
Method: (§2) 4T1 ([…]), HUVEC (human umbilical vein endothelial cells) and H9C2 (rat BDIX heart myoblasts) cells were maintained in RPMI-1640, Endothelial cell growth medium (EGM) or Dulbecco's Modified Eagle Medium (DMEM) supplemented with 10% (v/v) fetal bovine serum (FBS), 1% streptomycin and 100 U/mL penicillin, respectively. Bone marrow-derived macrophages (BMDMs) and bone marrow-derived dendritic cells (BMDCs) were prepared by isolating bone marrow cells from BALB/c mice. Then, bone marrow cells were differentiated into BMDMs by incubating with M-CSF (Macrophage colony-stimulating factor, 20 ng/mL) for 7 days, or were differentiated into BMDCs by culturing for 7 days in the presence of GM-CSF (20 ng/mL), IL4 (20 ng/mL) and 0.1% β-mercaptoethanol. After isolation, BMDMs and BMDCs were maintained in RPMI-1640 medium supplemented with 10% (v/v) FBS, 1% streptomycin, and 100 U/mL penicillin.
as §1, with “After 24 h of stabilization, the PD-NPs or free DOX were treated with each cell for 24 h.” left out

DCs = assay: cytotoxicity against immune cells, CCK-8 assay; type: cell-based, mouse; settings: 24 h treatment, P < 0.001
Method: as §2
as §1, with “After 24 h of stabilization, the PD-NPs or free DOX were treated with each cell for 24 h.” left out

4T1 cells = assay: cytotoxicity, CCK-8 assay; type: cell-based; settings: 4T1, HUVEC and H9C2 cells, 24 h treatment
Method: as §1

4T1 tumor-bearing mice [3] = assay: in vivo tumor inhibition; design: species or system mouse; settings: once every three days; DOX or PD-NPs i.v. 3 mg/kg based on DOX contents, antibody i.p. 10 mg/kg; saline 1655.9 ± 319.94
Method: (§3) 4T1 tumor-bearing mice were randomly divided into four groups: (i) saline; (ii) free DOX; (iii) free DOX with anti-PD-L1 antibody; and (iv) PD-NPs. Then, mice were treated once every three days, with free DOX or PD-NPs (3 mg/kg based on DOX contents), at which time tumor volumes had reached 60 - 80 mm^3. The anti-PD-L1 antibody (10 mg/kg) was i.p. injected simultaneously with free DOX into mice. Antitumor efficacy was assessed by measuring tumor volumes, calculated as largest diameter x smallest diameter^2 x 0.53, every 2 days. For the analysis of antitumor immune responses, tumor tissues were collected on day 7, and single cells were isolated from tumor tissues using a Tumor Dissociation Kit. Following cell counting, the single cells were incubated with FcBlock at 37 °C for 5 min to avoid non-specific antibody binding. Then, multi-parameter staining was performed for 40 min to assess the following populations in tumor tissues; (i) PD-L1^+ cancer cells (CD45^-PD-L1^+); (ii) CRT^+ cancer cells (CD45^-CRT^+); (iii) CD8^+ T cells (CD45^+CD3^+CD8^+); and (iv) regulatory T cells (Tregs; CD45^+CD3^+CD4^+CD25^+). In order to assay the concentration of cytokines in the tumor microenvironment, the IFN-γ and TNF-α in the tumor supernatants were assessed using commercialized ELISA assay kits (Catalog # SMIF00 and SMTA00B, respectively, R&D systems).

[4] = test system: PD-L1 in IFN-γ-treated 4T1 cells; assay: PD-L1 expression by western blot; type: cell-based; settings: 4T1 cells pre-treated with IFN-γ 20 ng/mL 24 h, then 2 μM for 24 h
Method: PD-L1 expression in 4T1 cells after different treatment was analyzed via western blot. Briefly, 1 × 10^6 4T1 cells were seeded in 6-well cell culture plates with RPMI medium containing 10% FBS and 1% antibiotics. After 24 h of stabilization, the cells were pre-treated with IFN-γ (20 ng/mL) for 24 h and further incubated with equal molar dose (2 μM) of free DOX, PD-NPs, anti-PD-L1 antibody or anti-PD-L1 peptide ([…]) for 24 h. Then, each cell was solubilized with lysis buffer containing 1% protease inhibitors, and the lysates were centrifuged at 10,000 rpm for 15 min to remove cell debris. Proteins in lysates were quantified via BCA protein quantification kit (Thermo Fisher scientific, USA), and then separated by sodium dodecyl sulfate-polyacrylamide (SDS-PAGE) gel electrophoresis and transferred onto polyvinylidene difluoride (PVDF) membranes. Membranes were incubated with TBS-T containing 5% bovine serum albumin (BSA) for 50 min to block non-specific IgG binding and incubated with anti-mouse PD-L1 primary antibody ([…]) for 12 h at 4 °C. Then, membranes were further incubated with HRP-conjugated anti-rabbit IgG antibody for 90 min at room temperature. Finally, immunoreactive bands were observed via enhanced chemiluminescence (ECL) system.

4T1 tumor-bearing mice [5] = assay: survival analysis; type: in vivo, mouse; settings: treated once every three days; saline group 18 days
Method: as §3, with “Then, multi-parameter staining was performed for 40 min to assess the following populations in tumor tissues; (i) PD-L1^+ cancer cells (CD45^-PD-L1^+); (ii) CRT^+ cancer cells (CD45^-CRT^+); (iii) CD8^+ T cells (CD45^+CD3^+CD8^+); and (iv) regulatory T cells (Tregs; CD45^+CD3^+CD4^+CD25^+).” left out
The statistical significance between two groups was analyzed using Student's t-test. One-way analysis of variance (ANOVA) was performed for comparisons of more than two groups, and multiple comparisons were analyzed using Tukey-Kramer post-hoc test. Survival data was plotted as Kaplan-Meier curves and analyzed using log-rank test. […]

Row | Structure (SMILES) | cleavage by cathepsin B (cathepsin B; cathepsin B 10 μg, pH 5.5 MES buffer, 0, 6, 12 and 24 h, HPLC) | cleaved by cathepsin B (cathepsin B; 10 μM, cathepsin B 10 μg, MES buffer 0.1 M pH 5.5, 6 h post-incubation, HPLC) | cleavage in cathepsin B-suppressed condition (cathepsin B; cathepsin B with irreversible inhibitor Z-FA-FMK 50 μM, MES buffer pH 5.5, HPLC) | blood analyses, hematological parameters (AST, ALT, BUN, CK, WBC, NEUT, LYMP) (4T1 tumor-bearing mice [1]) | body weights during treatment (4T1 tumor-bearing mice [1]) | accumulation in the liver tissues versus free DOX (4T1 tumor-bearing mice [2]; ex vivo NIRF imaging) | accumulation at tumor tissues compared to free DOX (4T1 tumor-bearing mice [2]; i.v., NIRF) | cytotoxicity compared to free DOX (T lymphocytes) | cytotoxicity compared to free DOX (macrophages) | cytotoxicity compared to free DOX (DCs) | cytotoxicity in three types of cells (4T1 cells) | tumor volume on day 16 (4T1 tumor-bearing mice [3]) [mm^3] | PD-L1 expression [4] | median survival (4T1 tumor-bearing mice [5]) [days]
1 | COc1cccc2c1C(=O)c1c(O)c3c(c(O)c1C2=O)C[C@@](O)(C(=O)CO)C[C@@H]3O[C@H]1C[C@H](NC(=O)CNC(=O)[C@H](CCCNC(=N)N)NC(=O)CNC(=O)[C@H](Cc2ccccc2)NC(=O)[C@H](CCCNC(=N)N)NC(=O)[C@@H](NC(=O)[C@H](CCCNC(=N)N)NC(=O)[C@H](C)NC(=O)[C@H](CCCNC(=N)N)NC(=O)[C@@H](NC(=O)[C@H](CS)NC(C)=O)C(C)C)[C@@H](C)O)[C@H](O)[C@H](C)O1 [CVRARTR-FGRG-DOX] (Ac-CVRARTRFGRG-{Doxorubicin(3'-N)}) | not cleaved |  |  |  |  |  |  |  |  |  |  |  |  | 
2 | COc1cccc2c1C(=O)c1c(O)c3c(c(O)c1C2=O)C[C@@](O)(C(=O)CO)C[C@@H]3O[C@H]1C[C@H](NC(=O)CNC(=O)[C@H](CCCNC(=N)N)NC(=O)[C@H](CCCNC(=N)N)NC(=O)[C@H](Cc2ccccc2)NC(=O)[C@H](CCCNC(=N)N)NC(=O)[C@@H](NC(=O)[C@H](CCCNC(=N)N)NC(=O)[C@H](C)NC(=O)[C@H](CCCNC(=N)N)NC(=O)[C@@H](NC(=O)[C@H](CS)NC(C)=O)C(C)C)[C@@H](C)O)[C@H](O)[C@H](C)O1 [PD-NPs] (Ac-CVRARTRFRRG-{Doxorubicin(3'-N)}) |  | approximately 99% | not cleaved | in normal range | gradually increased | significantly higher accumulation | 4.01-4.48 times | significantly reduced | significantly reduced | significantly reduced |  |  |  | 
3 | COc1cccc2c1C(=O)c1c(O)c3c(c(O)c1C2=O)C[C@@](O)(C(=O)CO)C[C@@H]3O[C@H]1C[C@H](N)[C@H](O)[C@H](C)O1.Cl [free DOX, Doxorubicin hydrochloride] |  |  |  | severe cardiac, renal and hepatic toxicity | severe body weight loss |  |  |  |  |  | indiscriminate cytotoxicity with similar IC50 | 1028.73 ± 218.15 | further increased | 20

From PMC8899589, “Anti-PD-L1 peptide-conjugated prodrug nanoparticles for targeted cancer immunotherapy combining PD-L1 blockade with immunogenic cell death” (Theranostics, 2022)
